Data published in patent publication US20240261333A1 (published 2024).

What was measured:
Test in all cases: co-IP, anti-FLAG, lysate of cells with N-FLAG B3GNT2; mass spectrometry
ATXN2 = molecular target: T1, ATXN2 (human, UniProt Q99700 1-1313)
T1 construct: also called NP_002964.3

EIF5B = molecular target: T2, EIF5B (human, UniProt O60841 1-1220)
T2 construct: also called NP_056988.3
T2 sequence (looked up): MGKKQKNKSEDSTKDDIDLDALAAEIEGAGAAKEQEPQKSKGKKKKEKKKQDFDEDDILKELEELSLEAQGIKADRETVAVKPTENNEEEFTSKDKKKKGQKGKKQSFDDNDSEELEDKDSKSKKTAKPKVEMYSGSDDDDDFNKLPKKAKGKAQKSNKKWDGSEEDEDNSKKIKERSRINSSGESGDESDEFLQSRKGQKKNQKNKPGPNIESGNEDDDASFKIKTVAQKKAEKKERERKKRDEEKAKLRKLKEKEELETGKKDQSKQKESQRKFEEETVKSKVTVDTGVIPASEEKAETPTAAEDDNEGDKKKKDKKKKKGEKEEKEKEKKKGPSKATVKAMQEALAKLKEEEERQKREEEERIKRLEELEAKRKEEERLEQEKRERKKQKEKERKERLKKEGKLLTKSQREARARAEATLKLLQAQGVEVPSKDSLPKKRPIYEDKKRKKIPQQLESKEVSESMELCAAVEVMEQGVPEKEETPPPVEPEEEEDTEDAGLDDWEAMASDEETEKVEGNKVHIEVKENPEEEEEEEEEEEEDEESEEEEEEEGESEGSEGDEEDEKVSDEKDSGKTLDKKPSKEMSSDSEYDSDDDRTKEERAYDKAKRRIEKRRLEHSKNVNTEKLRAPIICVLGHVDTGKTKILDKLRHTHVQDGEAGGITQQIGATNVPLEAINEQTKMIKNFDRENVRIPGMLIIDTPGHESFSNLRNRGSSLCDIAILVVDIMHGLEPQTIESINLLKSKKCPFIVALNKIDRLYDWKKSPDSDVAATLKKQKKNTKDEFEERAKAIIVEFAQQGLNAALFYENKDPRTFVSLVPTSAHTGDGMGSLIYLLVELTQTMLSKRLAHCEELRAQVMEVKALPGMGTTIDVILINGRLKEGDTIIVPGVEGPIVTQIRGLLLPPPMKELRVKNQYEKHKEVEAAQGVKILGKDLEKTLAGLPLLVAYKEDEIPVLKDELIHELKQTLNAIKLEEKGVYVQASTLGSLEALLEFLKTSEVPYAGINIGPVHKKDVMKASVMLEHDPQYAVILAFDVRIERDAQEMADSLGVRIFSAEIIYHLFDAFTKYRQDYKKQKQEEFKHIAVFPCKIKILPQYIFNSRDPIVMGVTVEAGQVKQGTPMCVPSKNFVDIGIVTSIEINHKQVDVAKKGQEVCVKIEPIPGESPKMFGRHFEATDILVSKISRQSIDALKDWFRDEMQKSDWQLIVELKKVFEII

G3BP1 = molecular target: T3, G3BP1 (human, UniProt Q13283 2-466)
T3 construct: also called NP_005745.1
T3 sequence (Q13283 2-466 limits assumed): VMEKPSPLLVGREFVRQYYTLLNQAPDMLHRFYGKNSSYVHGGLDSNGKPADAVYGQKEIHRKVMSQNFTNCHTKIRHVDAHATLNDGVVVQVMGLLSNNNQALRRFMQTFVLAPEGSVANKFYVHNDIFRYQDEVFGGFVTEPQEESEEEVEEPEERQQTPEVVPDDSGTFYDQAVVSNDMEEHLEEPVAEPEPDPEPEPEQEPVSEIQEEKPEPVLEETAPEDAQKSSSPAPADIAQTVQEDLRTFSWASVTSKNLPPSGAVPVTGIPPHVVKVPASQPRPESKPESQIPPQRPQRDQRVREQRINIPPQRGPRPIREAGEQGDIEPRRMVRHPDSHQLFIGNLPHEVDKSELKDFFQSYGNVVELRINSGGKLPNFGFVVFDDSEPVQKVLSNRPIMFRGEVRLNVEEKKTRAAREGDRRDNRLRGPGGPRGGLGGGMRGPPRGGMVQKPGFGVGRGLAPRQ

SERBP1 = molecular target: T4, SERBP1 (human, UniProt Q8NC51 2-408)
T4 construct: also called NP_001018077.1 (+1)
T4 sequence (looked up): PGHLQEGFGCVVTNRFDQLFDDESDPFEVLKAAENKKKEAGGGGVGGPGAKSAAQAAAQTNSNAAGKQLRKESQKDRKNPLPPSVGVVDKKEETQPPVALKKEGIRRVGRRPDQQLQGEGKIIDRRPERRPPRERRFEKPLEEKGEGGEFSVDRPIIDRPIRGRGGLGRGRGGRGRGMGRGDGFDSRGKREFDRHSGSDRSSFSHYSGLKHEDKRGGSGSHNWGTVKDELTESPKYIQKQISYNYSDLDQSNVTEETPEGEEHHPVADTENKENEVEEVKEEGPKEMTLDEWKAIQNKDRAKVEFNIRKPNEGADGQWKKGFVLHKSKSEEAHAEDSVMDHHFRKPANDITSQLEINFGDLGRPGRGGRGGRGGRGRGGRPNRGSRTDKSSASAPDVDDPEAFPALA

ARPC4 = ARPC4 (human, UniProt P59998 2-187)

T1 sequence (Q99700 whole entry): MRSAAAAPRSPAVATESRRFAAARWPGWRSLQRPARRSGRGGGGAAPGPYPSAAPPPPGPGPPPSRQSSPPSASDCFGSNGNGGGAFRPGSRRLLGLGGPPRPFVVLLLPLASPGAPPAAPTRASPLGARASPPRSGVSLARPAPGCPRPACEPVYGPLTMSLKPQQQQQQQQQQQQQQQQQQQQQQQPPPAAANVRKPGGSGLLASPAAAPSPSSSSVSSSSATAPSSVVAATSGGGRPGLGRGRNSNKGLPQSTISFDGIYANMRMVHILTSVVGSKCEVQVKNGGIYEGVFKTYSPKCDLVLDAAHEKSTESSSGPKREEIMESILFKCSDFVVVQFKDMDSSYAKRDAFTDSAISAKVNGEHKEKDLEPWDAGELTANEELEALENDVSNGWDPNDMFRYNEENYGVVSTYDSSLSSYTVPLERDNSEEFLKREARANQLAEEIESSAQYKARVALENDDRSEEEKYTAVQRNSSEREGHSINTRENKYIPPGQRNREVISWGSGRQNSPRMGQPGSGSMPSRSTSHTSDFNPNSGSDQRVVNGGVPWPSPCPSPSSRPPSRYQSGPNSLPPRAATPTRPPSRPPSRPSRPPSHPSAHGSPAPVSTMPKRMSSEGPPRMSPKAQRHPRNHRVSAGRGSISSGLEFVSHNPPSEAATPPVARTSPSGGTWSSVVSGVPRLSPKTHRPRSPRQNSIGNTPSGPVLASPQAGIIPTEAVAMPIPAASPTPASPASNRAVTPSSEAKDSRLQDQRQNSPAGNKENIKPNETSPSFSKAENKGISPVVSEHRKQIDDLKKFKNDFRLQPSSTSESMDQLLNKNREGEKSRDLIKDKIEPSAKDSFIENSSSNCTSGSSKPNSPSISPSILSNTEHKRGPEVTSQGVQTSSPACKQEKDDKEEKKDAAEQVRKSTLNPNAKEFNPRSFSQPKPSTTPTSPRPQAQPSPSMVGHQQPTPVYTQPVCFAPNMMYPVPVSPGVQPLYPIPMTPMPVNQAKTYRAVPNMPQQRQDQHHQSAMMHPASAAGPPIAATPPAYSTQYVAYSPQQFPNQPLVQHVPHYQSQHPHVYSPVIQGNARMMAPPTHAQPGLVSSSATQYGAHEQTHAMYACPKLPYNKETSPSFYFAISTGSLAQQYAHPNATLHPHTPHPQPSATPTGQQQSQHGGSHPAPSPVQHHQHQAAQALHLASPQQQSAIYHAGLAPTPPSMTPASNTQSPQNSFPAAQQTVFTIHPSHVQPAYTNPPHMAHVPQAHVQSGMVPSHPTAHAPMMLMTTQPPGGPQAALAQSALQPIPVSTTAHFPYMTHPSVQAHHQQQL

B1: N-terminal FLAG tagged B3GNT2 (enzyme, human, UniProt Q9NY97 1-397, looked up)
chain: MSVGRRRIKLLGILMMANVFIYFIMEVSKSSSQEKNGKGEVIIPKEKFWKISTPPEAYWNREQEKLNRQYNPILSMLTNQTGEAGRLSNISHLNYCEPDLRVTSVVTGFNNLPDRFKDFLLYLRCRNYSLLIDQPDKCAKKPFLLLAIKSLTPHFARRQAIRESWGQESNAGNQTVVRVFLLGQTPPEDNHPDLSDMLKFESEKHQDILMWNYRDTFFNLSLKEVLFLRWVSTSCPDTEFVFKGDDDVFVNTHHILNYLNSLSKTKAKDLFIGDVIHNAGPHRDKKLKYYIPEVVYSGLYPPYAGGGGFLYSGHLALRLYHITDQVHLYPIDDVYTGMCLQKLGLVPEKHKGFRTFDIEEKNKNNICSYVDLMLVHSRKPQEMIDIWSQLQSAHLKC
notes: Overexpressed in cells and pulled down from the lysate with mouse anti-FLAG antibody; also called N-FLAG B3GNT2; N-term FLAG; not shown: N-terminal FLAG tag
ATXN2
  co-IP mass spectrometry count: 4
EIF5B
  co-IP mass spectrometry count: 0
G3BP1
  co-IP mass spectrometry count: 27
SERBP1
  co-IP mass spectrometry count: 0
ARPC4
  co-IP mass spectrometry count: 0
